US8318172B2, “Breaking immunological tolerance with a genetically encoded unnatural amino acid” (The Scripps Research Institute, priority 2008, dated 2012)

Assays:
[1] = target: T1, WT mRBP4 (Mus musculus, UniProt Q00724); assay: Immunization of mice with mRBP4 variants (RIMMS), serum IgG titers by ELISA; format: in vivo; settings: Bcl2 mice (FIG. 19), C57BL/6 mice (FIG. 26), RIMMS protocol
T1 construct: The cDNA encoding murine RBP4 (aa 19-201); made in house; host or cells: E. coli BL21(DE3)
Description: 30 μl of 0.5 μg/ml protein was used to coat the wells of Maxisorp 384-well plates (Nunc, Rochester, N.Y.) overnight at 4° C. After washing with PBS+0.05% Tween 20 (PBST), the coated plates were blocked with 80 μl of 1% BSA in PBS, and washed again with PBST. The plates were sequentially incubated with 20 μl of primary antibody or serum diluted in 1% BSA in PBS, 20 μl of HRP-conjugated goat anti-mouse IgG or anti-mouse IgM (Jackson ImmunoResearch Laboratories, West Grove, Pa.), and 20 μl of TMB substrate (KPL, Gaithersburg, Md.), and read at an absorbance of 650 nm. Between incubations, the plates were washed at least six times with PBST.
Before measurement, serum samples were diluted 1:1,000 with 1% BSA in PBS buffer.

[2] = TR-FRET retinol binding assay of mRBP4 proteins; settings: retinol binding affinities of mRBP4 proteins
Description: The binding affinities of mRBP4 proteins were determined by a TR-FRET retinol binding assay.
WT and pNO2Phe mRBP4 mutant proteins were labeled with biotin using the Sulfo-NHS-Biotin kit (Pierce, Rockford, Ill.) according to manufacturer instructions. For determination of retinol binding activity, 10 nM biotin-labeled RBP4 was mixed with 1 nM Streptavidin-Europium chelate (LANCE® Eu-W8044 Streptavidin, Perkin Elmer, Foster City, Calif.). Increasing concentrations of Cy5-labeled retinol were added to the reaction and retinol binding was assessed by homogeneous time-resolved fluorescence resonance energy transfer (TR-FRET).

serum IgG titers against WT mRBP4 [1]: insignificant serum IgG titers | Kd [2]: 171 nM
Substance: WT mRBP4: wild-type murine retinol binding protein 4, N-terminal His6-tagged, expressed in E. coli
